Measured values: patent publication US8993320B2, “Culture method to obtain and maintain a pure or enriched population of mammalian neural stem cells and/or neural/progenitor cells that are prone to differentiate into oligodendrocyte-lineage cells in vitro” (priority 2011, dated 2015)

B1: neurotrophin-3 (protein, UniProt P20783 139-257, looked up)
Neurotrophin-3: YAEHKSHRGEYSVCDSESLWVTDKSSAIDIRGHQVTVLGEIKTGNSPVKQYFYETRCKEARPVKNGCRGIDDKHWNSQCKTSQTYVRALTSENNKLVGWRWIRIDTSCVCALSRKIGRT
notes: growth factor
B2: PDGF-BB: PDGF family member used to replace PDGF-AA (protein, UniProt P01127 82-190, looked up)
Platelet-derived growth …: SLGSLTIAEPAMIAECKTRTEVFEISRRLIDRTNANFLVWPPCVEVQRCSGCCNNRNVQCRPTQVQLRPVQVRKIEIVRKKPIFKKATVTLEDHLACKCETVAAARPVT

Experiments:
HFSC cells [1] = experiment: Expansion of HFSC cells with growth factors and supplements (live cell count); format: cell-based, human; conditions: 10 ng/ml NT-3 added at passage 17; cell line #2b; effect disappeared after a passage
HFSC cells [2] = experiment: as above; format: cell-based, human; conditions: cell line #2b and cell line #3; same condition except for PDGF-AA
Protocol: FIG. 4 illustrates the expansion rate of HFSC cells (cell line #2b) in the presence of different combinations of growth factors: (1): 20 ng/ml PDGF-AA+10 ng/ml bFGF; (2): 20 ng/ml PDGF-AA+10 ng/ml bFGF+5 ng/ml NT-3; (3): 20 ng/ml PDGF-AA+10 ng/ml bFGF+10 ng/ml IGF-1; (4): 20 ng/ml PDGF-AA+10 ng/ml bFGF+5 ng/ml NT-3+10 ng/ml IGF-1. The cells were harvested at day 11 of passage 3 (P3D11) and number of live cells in each condition was counted. Then, they were passaged in the same condition that was used at passage 3 at the same cell density. The cells were harvested at day 8 of passage 4 (P4D8) and number of live cells in each condition was counted (these cells were harvested before they became sub-confluent because they started forming spheres). […] Condition (3) was effective at both passages. […] The cells were harvested at day 7 of passage 5 (these cells were harvested before they became sub-confluent because they started forming spheres as they did at passage 4) and number of live cells in each condition was counted. […]

| Molecule | effect on cell growth (HFSC cells [1]) | expansion of cells when replacing PDGF-AA (HFSC cells [2]) |
| --- | --- | --- |
| B1 | enhanced the cell growth a little bit |  |
| B2 |  | could expand both cell lines |
